{"source": "paper PMC4780012", "about": "“SmMYC2a and SmMYC2b played similar but irreplaceable roles in regulating the biosynthesis of tanshinones and phenolic acids in Salvia miltiorrhiza”", "binders": {"B1": {"name": "Wild-type CYP98A14 (dsDNA)", "DNA 1": "ATTAGTGATTAACACGTGCACATTTATTAA", "DNA 2": "TTAATAAATGTGCACGTGTTAATCACTAAT"}, "B2": {"name": "Wild-type HCT6 (dsDNA)", "DNA 1": "AAGCCTAAAGCTCACATGGCTGCTAAACCT", "DNA 2": "AGGTTTAGCAGCCATGTGAGCTTTAGGCTT"}, "B3": {"name": "m-HCT6 (dsDNA)", "DNA 1": "AAGCCTAAAGCTTTTTTTGCTGCTAAACCT", "DNA 2": "AGGTTTAGCAGCAAAAAAAGCTTTAGGCTT"}}, "key": {"SmMYC2b-His": {"molecular_target": "SmMYC2b-His (Salvia miltiorrhiza, UniProt UPI0025AD73A7 1-607)", "sequence (chain, as listed by the source)": "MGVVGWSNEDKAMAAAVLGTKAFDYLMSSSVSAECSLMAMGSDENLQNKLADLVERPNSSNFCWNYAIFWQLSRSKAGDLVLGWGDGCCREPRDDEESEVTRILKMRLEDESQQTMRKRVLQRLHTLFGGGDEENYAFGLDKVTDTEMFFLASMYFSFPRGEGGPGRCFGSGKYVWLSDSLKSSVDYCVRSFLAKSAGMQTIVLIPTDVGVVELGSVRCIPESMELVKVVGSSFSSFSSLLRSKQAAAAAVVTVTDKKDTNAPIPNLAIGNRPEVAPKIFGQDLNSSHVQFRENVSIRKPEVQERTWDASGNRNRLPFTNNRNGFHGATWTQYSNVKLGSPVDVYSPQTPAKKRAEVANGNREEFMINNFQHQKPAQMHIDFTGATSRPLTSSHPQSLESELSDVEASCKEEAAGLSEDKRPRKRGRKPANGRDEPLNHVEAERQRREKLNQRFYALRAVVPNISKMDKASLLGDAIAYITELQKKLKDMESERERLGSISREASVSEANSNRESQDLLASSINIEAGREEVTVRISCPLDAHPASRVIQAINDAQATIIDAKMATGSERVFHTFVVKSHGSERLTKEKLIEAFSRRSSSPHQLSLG", "assay": "EMSA; EMSA: 2 ug purified protein with 2 ug 3'-biotin probe, room temperature, 10 min; buffer, salt and pH not stated", "settings": "protein: recombinant; tags: His (text: C-terminal, cleavable; pET32a vector, EcoRV/SalI); chain copies: 2; label: 3' biotin; blunt"}, "SmMYC2a-His": {"molecular_target": "SmMYC2a-His (Salvia miltiorrhiza, UniProt A0A088SC56 1-602)", "sequence (A0A088SC56 entry or part of it)": "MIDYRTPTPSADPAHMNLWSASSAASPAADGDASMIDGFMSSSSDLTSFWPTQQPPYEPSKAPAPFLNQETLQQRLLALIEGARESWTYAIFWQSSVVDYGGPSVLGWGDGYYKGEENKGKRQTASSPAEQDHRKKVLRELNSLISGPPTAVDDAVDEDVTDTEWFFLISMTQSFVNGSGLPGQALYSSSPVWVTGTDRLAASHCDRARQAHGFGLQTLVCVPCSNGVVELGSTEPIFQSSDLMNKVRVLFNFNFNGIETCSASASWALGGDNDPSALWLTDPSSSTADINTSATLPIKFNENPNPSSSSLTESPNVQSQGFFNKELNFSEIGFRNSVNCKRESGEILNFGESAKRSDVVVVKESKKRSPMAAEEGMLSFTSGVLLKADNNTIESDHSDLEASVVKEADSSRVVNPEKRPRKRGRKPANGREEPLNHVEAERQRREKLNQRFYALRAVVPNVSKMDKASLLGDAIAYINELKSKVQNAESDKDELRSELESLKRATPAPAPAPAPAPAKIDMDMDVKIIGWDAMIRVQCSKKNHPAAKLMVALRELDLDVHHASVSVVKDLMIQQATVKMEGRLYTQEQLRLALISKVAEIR", "assay": "EMSA; EMSA: 2 ug purified protein with 2 ug 3'-biotin probe, room temperature, 10 min; buffer, salt and pH not stated", "settings": "protein: recombinant; tags: His (text: C-terminal, cleavable; pET32a vector, BamHI/HindIII); chain copies: 2; label: 3' biotin; blunt"}}}
{"binder": "B1", "values": [{"measurement": "binding result", "setting": "SmMYC2b-His", "value": "binds"}, {"measurement": "binding result", "setting": "SmMYC2a-His", "value": "binds"}]}
{"binder": "B2", "values": [{"measurement": "binding result", "setting": "SmMYC2a-His", "value": "binds"}]}
{"binder": "B3", "values": [{"measurement": "binding result", "setting": "SmMYC2a-His", "value": "no binding"}]}
